Assay results reported in article PMC6902050, “OXA-830, a Novel Chromosomally Encoded Extended-Spectrum Class D β-Lactamase in Aeromonas simiae” (Frontiers in Microbiology, 2019).

Tests used:
OXA-830 = molecular target: T1, OXA-830 (Aeromonas simiae, UniProt A0A5K1KBV9); experiment: inhibition of benzylpenicillin hydrolysis, UV-VIS spectrophotometry; format: biochemical
T1 construct: gene blaOXA; predicted signal peptide cleavage 22/23

[1] = test system: CC1(C)S[C@@H]2[C@H](NC(=O)[C@H](N)c3ccccc3)C(=O)N2[C@H]1C(=O)O; experiment: initial hydrolysis rates, UV-VIS spectrophotometry, Michaelis-Menten fit; format: biochemical, Aeromonas simiae; conditions: 10 mM phosphate buffer pH 7.0, 30°C
From the text: (§1) initial hydrolysis rates, UV-VIS spectrophotometry, Michaelis-Menten fit on OXA-830

[2] = test system: Cc1onc(-c2ccccc2)c1C(=O)N[C@@H]1C(=O)N2[C@@H]1SC(C)(C)[C@@H]2C(=O)O; experiment: as above; format: biochemical, Aeromonas simiae; conditions: 10 mM phosphate buffer pH 7.0, 30°C
From the text: as §1

[3] = test system: Cc1nnc(SCC2=C(C(=O)O)N3C(=O)[C@@H](NC(=O)Cn4cnnn4)[C@H]3SC2)s1; experiment: as above; format: biochemical, Aeromonas simiae; conditions: 10 mM phosphate buffer pH 7.0, 30°C
From the text: as §1

[4] = test system: CC1(C)S[C@@H]2[C@H](NC(=O)[C@H](C(=O)O)c3ccsc3)C(=O)N2[C@H]1C(=O)O; experiment: as above; format: biochemical, Aeromonas simiae; conditions: 10 mM phosphate buffer pH 7.0, 30°C
From the text: as §1

[5] = test system: CC1(C)S[C@@H]2[C@H](NC(=O)Cc3ccccc3)C(=O)N2[C@H]1C(=O)O; experiment: as above; format: biochemical, Aeromonas simiae; conditions: 10 mM phosphate buffer pH 7.0, 30°C
From the text: as §1

[6] = test system: CCN1CCN(C(=O)N[C@@H](C(=O)N[C@@H]2C(=O)N3[C@@H]2SC(C)(C)[C@@H]3C(=O)O)c2ccccc2)C(=O)C1=O; experiment: as above; format: biochemical, Aeromonas simiae; conditions: 10 mM phosphate buffer pH 7.0, 30°C
From the text: as §1

[7] = test system: CO[C@@]1(NC(=O)Cc2cccs2)C(=O)N2C(C(=O)O)=C(COC(N)=O)CS[C@@H]21; experiment: as above; format: biochemical, Aeromonas simiae; conditions: 10 mM phosphate buffer pH 7.0, 30°C
From the text: as §1

[8] = test system: Cc1onc(-c2ccccc2Cl)c1C(=O)N[C@@H]1C(=O)N2[C@@H]1SC(C)(C)[C@@H]2C(=O)O; experiment: as above; format: biochemical, Aeromonas simiae; conditions: 10 mM phosphate buffer pH 7.0, 30°C
From the text: as §1

[9] = test system: CC(C)(O/N=C(\C(=O)N[C@@H]1C(=O)N2C(C(=O)[O-])=C(C[n+]3ccccc3)CS[C@H]12)c1csc(N)n1)C(=O)O; experiment: as above; format: biochemical, Aeromonas simiae; conditions: 10 mM phosphate buffer pH 7.0, 30°C
From the text: as §1

T1 sequence (A0A5K1KBV9 entry or part of it): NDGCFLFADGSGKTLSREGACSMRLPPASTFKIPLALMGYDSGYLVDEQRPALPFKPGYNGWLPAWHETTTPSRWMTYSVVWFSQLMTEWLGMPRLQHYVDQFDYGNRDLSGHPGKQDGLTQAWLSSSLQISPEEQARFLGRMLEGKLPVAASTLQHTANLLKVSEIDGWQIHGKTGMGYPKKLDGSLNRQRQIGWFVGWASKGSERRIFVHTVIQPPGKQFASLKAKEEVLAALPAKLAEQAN

Compound: O=C(O)[C@H]1/C(=C/CO)O[C@@H]2CC(=O)N21 [clavulanic acid]
- IC50 (OXA-830): 260 ± 20 nM

Compound: CC1(C)[C@H](C(=O)O)N2C(=O)C[C@H]2S1(=O)=O [sulbactam]
- IC50 (OXA-830): 50 ± 10 nM

Compound: C[C@]1(Cn2ccnn2)[C@H](C(=O)O)N2C(=O)C[C@H]2S1(=O)=O [tazobactam]
- IC50 (OXA-830): 70 ± 20 nM

Compound: OXA-830 (Aeromonas simiae)
- Km [1]: 188 µM
- kcat [1]: 444 s⁻¹
- kcat/Km [1]: 2.36e+06 M⁻¹ s⁻¹
- Km [2]: 722 µM
- kcat [2]: 1240 s⁻¹
- kcat/Km [2]: 1.72e+06 M⁻¹ s⁻¹
- Km [3]: 975 µM
- kcat [3]: 715 s⁻¹
- kcat/Km [3]: 730000 M⁻¹ s⁻¹
- Km [4]: 208 µM
- kcat [4]: 227 s⁻¹
- kcat/Km [4]: 1.09e+06 M⁻¹ s⁻¹
- Km [5]: 540 µM
- kcat [5]: 527 s⁻¹
- kcat/Km [5]: 980000 M⁻¹ s⁻¹
- Km [6]: 233 µM
- kcat [6]: 413 s⁻¹
- kcat/Km [6]: 1.77e+06 M⁻¹ s⁻¹
- Km [7]: 76 µM
- kcat [7]: 2.79 s⁻¹
- kcat/Km [7]: 37000 M⁻¹ s⁻¹
- Km [8]: 737 µM
- kcat [8]: 1030 s⁻¹
- kcat/Km [8]: 1.4e+06 M⁻¹ s⁻¹
- Km [9]: 61 µM
- kcat [9]: 2.04 s⁻¹
- kcat/Km [9]: 33000 M⁻¹ s⁻¹
